Data taken from the DeepSol protein solubility set.

Assay: soluble on expression in E. coli; label from the status in PepcDB or PDB records

Soluble on expression in E. coli, soluble:
MAFPAGFGWAAATAAYQVEGGWDADGKGPCVWDTFTHQGGERVFKNQTGDVACGSYTLWEEDLKCIKQLGLTHYRFSLSWSRLLPDGTTGFINQKGIDYYNKIIDDLLKNGVTPIVTLYHFDLPQTLEDQGGWLSEAIIESFDKYAQFCFSTFGDRVKQWITINEANVLSVMSYDLGMFPPGIPHFGTGGYQAAHNLIKAHARSWHSYDSLFRKKQKGMVSLSLFAVWLEPADPNSVSDQEAAKRAITFHLDLFAKPIFIDGDYPEVVKSQIASMSQKQGYPSSRLPEFTEEEKKMIKGTADFFAVQYYTTRLIKYQENKKGELGILQDAEIEFFPDPSWKNVDWIYVVPWGVCKLLKYIKDTYNNPVIYITENGFPQSDPAPLDDTQRWEYFRQTFQELFKAIQLDKVNLQVYCAWSLLDNFEWNQGYSSRFGLFHVDFEDPARPRVPYTSAKEYAKIIRNNGLEAHL
MGSTRWDAVNKFSVENWYPHLRKHTFKSHFITLNYNDIHYLMGNIPPDYDSSKLESIFNKILSEFNNKEVFMRLSTRSPKDSKFLFEEASTIMSKDFVYWNENDNKHQQLVSFVASMLKAMKIKSGRKIIETIAQSPRVYNDLLALVSSSNQSDCTTNVILREWHDIRPDHEFRVFVSRRHRKESIVTAISQYFHFLYFDKSPADCFNFLDEEDKKAVIKKFENYVLKSVDPDVAKFLNFSSEQDDDESSDCIREYIVDLALIPVSQYHGEITDENIIEIGANTYVMVVIELNPFAPAATGSGLFNWKNDLMMLWGKASCDYPVFKYRTTPREDLQSVSLLPSNYESVIKSALIKRLETSYSNSASQKERFFSSTKPVTESSGSALLDMVTKPLEHHHHHH
MRKPILAALTLAGLGLAQEFITIGSGSTTGVYFPVATGIAKLVNDANVGIRANARSTGGSVANINAINAGEFEMALAQNDIAYYAYQGCCIPAFEGKPVKTIRALAALYPEVVHVVARKDAGIRTVADLKGKRVVVGDVGSGTEQNARQILEAYGLTFDDLGQAIRVSASQGIQLMQDKRADALFYTVGLGASAIQQLALTTPIALVAVDLNRIQAIAKKYPFYVGFNIPGGTYKGVDVTTPTVAVQAMLIASERLSEETVYKFMKAVFGNLEAFKKIHPNLERFFGLEKAVKGLPIPLHPGAERFYKEAGVLK
AIALPADGIVCFPGQTWEKVLSKVKKAVVFMDDRCSESLHWNGGAALLFEAGARNIKQFSSFEAGAQNEPKAVFVVSTVLKGRTADIIKDIISLSHFQYCVVFTTVPHSIHLLANNVNADLEGNPVFEQFEEKLCEWMGDMNYTAEVMHAPVVFAPLTEHLHLLPAFSNLFPLLDVDLESINEKRPEKKRFGSLMDMDVHSLPPGLQIQIKTLALTLNGLFEFISTREESFSVGPMSRLIATELANLPQAKNRRKTAPNKASVVFVDRTLDLTGAVGHHGDNLAEKILSVLPQLPGHVTDVQVDMLELTHLKPTTDTKGILAPGCLAQNQSATAKLLWETMLVAKQKEAVIEVRRQLVEAASKENLPIKMSLGRVTAEQLCSYVQLFRDSWGALESHSGVLQLGLAAAQALRHPALQRWDACLAFERLLLQALGDSDLAGVLKQLLPLIKSSESGTGSDLSMDDLLVLLVYVYSVAKEACSGGSEEEKQVEKVEQELIGALTLRLTRETTLSPLVQEVTGVSCPEELTMECAHSVLESMFGTLRGVARARDHLKNFSSVFTPGDGAHQDQHRYILILMIQDQHQ

Soluble on expression in E. coli, not soluble:
MGKLAADQLTLSYDSTVIIDGVDLKIEEGKITALIGANGCGKSTILKSLARLMAPKSGTVLLEGKDIHRQPSKEVAKKLAILPQSPQAPEGLTVEELCYFGRHPHKKLLSKHTQEDHDMVEWALEATGMIELKDRTLDALSGGQRQRAWISMALAQGTDLLLLDEPTTYLDISHQIEVLELLKKLNRDHGRTVVMVLHDLNQAAQYADYLISVLDGKIYNAGTPEDVFTQPFFREVFGLECCIMRSPIDQKPMCLPTGLCPKLRAK
MGSDKIHHHHHHMKCVVCGKNEAVEHGVCSQCLFDRANIENIGNVNIAICPKCGSVRIGKKWYREDYADHLLPLIMDEVKCSDPEAKISGDPKSVYFDESNRNLVLKVNITRDHMDPKVQTVSVPYSVNYISCPTCNKLTGSYFEATIQLRTVSTKYDEILSEVLDSIEKIMEKRRKMDASSFISKIERKPEGVDIYLGKKGDGDLVSSFILDHYFATLIVSKSLAGVKEGRKFFRFTYSLRILDAPEGAIVSVDKRKYILTAIRNRHIDVIDVETEERGRINRNVFFSNDGKIVTKEPQVKNFIVISRTEDESQIMDSQTFKIITIKGRAEGNEIRVFTYRGKYFI
MRGNLKLFELKSGRGEKLMKNILIISSSPRKKGNSQILCEQFKKGAEAKGHQVKIVRIMEQNIGFCRACDGCMRNGGTCVLKDDMAEILKMFQKADVLVLATPVYFYGISAQMKTFIDRTYPIWQHLGKKEVYYIISAGLGEDIIERSLGDLNGFVEHLEEYKISGKIYAANVMDAGLVKNQSVFQKAYDMGYAI
MFNNILVVCVGNICRSPTAERLLQRYHPELKVESAGLGALVGKGADPTAISVAAEHQLSLEGHCARQISRRLCRNYDLILTMEKRHIERLCEMAPEMRGKVMLFGHWDNECEIPDPYRKSRETFAAVYTLLERSARQWAQALNAEQV
KSIELYENNIPNGKTDAILIKNQTLISALKNPKQTKSSQRSSQSTNTQNDAICYLAFNSKIRPDDKDIFLLDKFGEKFVTAIVNFEEKTEVKINTLQEKEAVVLPAPQKFKPTDPKSVALVQGPSLIGIHANANEDRSTIKFLNW
MGSDKIHHHHHHMNNQVKRRKTKAVNVGKVQVGGGAPVAVQSMTCTDTRNVRETIEQIEALEKAGCEIVRVAVPDAEAASVLGKIKKSISIPLIADIHFNHHYALMAIEQDVDGIRINPGNVGKKNIAEIVRAAKDHNTVIRIGVNAGSLEKELQEKHGGPTAHALTESALNNLAFVEDMGFDRIKLSLKSSHVPTMIDAYRLVADKTDYPLHLGVTEAGTLVTSAVKSSIGMGLLLHEGIGDTIRVSVTGSPVLEIGIAYDILRALDIRRVGPDIISCPTCGRCEIDLFGLVEQVEHSLSGMKDYMKIALMGCVVNGPGEAAEADVGIAGGRGMGLLFKKGQVIRKIREEEFVKALLQEIQEMTGE
MGSDKIHHHHHHMQLSHSLRLMGTTIDIQINSKNAQKQIREVIELLELYKNRFSANDFNSELMAINNNAGIKPIQVHPDLFELITIGKEHSLARPSNLNIAIGPLVQTWRIGFSDAKLPSPSEISEAMILSDPTHILLDSNKQSVFLNQIGMKIDLGALAKGYIADKIMTYLKNEMIDSAIINLGGNVLVHGDNPNRSEGYWVIGIQHPKKKRGKNIGTVKIKNQSVVTSGTYERRLIIDDKEYHHIFDRQTGYPIQTEMASISIVSKQSVDCEIWTTRLFGLSIKEALDILNAVSYIEGIIITKDDRIYLSDGLKHHFQLFYH
MVLLSFDIEEFDVPLEQGYKDFPSEEQLRISRQGTEAILHILRKKGVRSTFFSTVTFWESLPEDLRKGIYTDGHELASHGVFHSSFSKEHLAESRQKLASLWDGTDVCGFRMPRMMPVGDAEIAEAGYLYNSSLNPTCIPGRYNHLSAPRLPYFDKYGVLQMPSSVTPLLRFPLFWLSLHHLPLRLYIRMIRHTVRRDNYLNLYFHPWEFAEISCLPDCKLSYTVTHNSGEKMCRRLEAVIDTLLADGCSFGTFSDYYRFQKQG
MNKLSRTDEENRQTEFSSSPLSDSVHSCLGFNRKKERKRRTSGDIEQTDKRKRTEERPSDKITFASNVFDNLARVTAERDNPEKLSKYKNIPGVGTRENIDEGISDINQPSSKSSGVKSKYVEVMSLFQKSIQKFSIMNLDYMYTFDWNHYSKKNIQYVVFTKVCQSHAPGHFVEMLKEDCSCRDCGSADLAVKVRLTVPLDLSDIPIPCSEDIQIHVSFLADDLLERHISSNVNRSSNRDDLDFSRRTCEKMYDLYQKMMRGQSSRMYTEWFDKCKIFVKNFLFSKSLHLYHGNVIRRKIEESQTLNKRRCFIFAQIFDLE
MGSDKIHHHHHHMKILAFGEVLLRMTVPEHLMLTQTDELRMSTVGTGVNLLSSLTHFGYRTRLLSRLPDNALGQRAAGELRRYGIQDDYVTFGGQHMGAYFVELGYGSRPERVTYQDRLSSAFCQQPPDDQEIAAALVGCQFVHICGITLSLTAPVRQAALRLAQQAHANGQRVCFDFNYRQQLNTGVAHETLKARYQEILPYVDIVFGSKRDLTALLDYPDDEDRTQSANRESEAALYEQFVRDYHIDYFAGSYRYQIGQQKWFAGFSYQHQQLVVGKARPLMILDRIGSGDAFASGIITALIEGWSLQKTTDFAIATAILAQATVNDAPEFTKEMVLADMASDGQLELIR
MSSLTLTDKVSKMIHQDILSGKLKPGQKLVVAELKERYNVGASPIREALVQLSWNKYVKLEPQKGCWVASISLSELKELFESLRTIGQVLLAKAITNGNENWELNVLTSFHKLNKINLQDAKIEELREWENRYTDFHNSLLEGAQSPIMYQFYQDISHQITRYRHLNNNPQVISETYAQYLEEHEIMMKLTLSRDSEQAIKYLNNHYSKASDLISTYFSA
MGSDKIHHHHHHMKRENLHQPFEICFSELDESQLKEHDHTFFELVYILSGTGIQWINNNKFPYHDGHLFMITPGDIHSFDIHTTTKFVYIKFNDIYIHSAVFGAENIQRLEFILQHANHRPGCILRNQTDKLLVKPMIEAIIREYVNRNIYSSEIITQLINTIVIVVARNIAMFLPEQIDENSEEKSLNILQYIQSNICYPEKIKAKAISQHFGISPNYLGRYFKKQTNETMQQYILNYKMKMVESRLLHSEMRISEIVEELGFTDESHLNRLFKKYKDCNPTDFRKKHRGQ
MGSDKIHHHHHHMSIMNFSEYQTQALKTDQIPAVEGTELMIPLLGLVGEVGSLMTEYKKHLRDGDAHKLFKEGIAEELGDMLWYISNLASKFNLNLEEIAEDNLRKCRDRWGWRDSAQIEDKGTTYIFDNDFPENESLPRQFEVEITEISKDNSIKMKAFINKKQVGNDLTDNSYTSDGYRFHDVFHFSYAAVLGWSAVTRSMLKRKRKSNSSIDEVEDGGRAIAIEEGISALIFSYAKNHGFLERVSTLDYQILKTIKNMTCHLEVSQCSLGDWEKAILMGYDVWRQVEKNRGGRVVLDLDARLITYLKKSSLCSASVEIKH
MSAICQVTGRQPGYGKSVSHSHRRTSRRWNPNVQRRKFYLPSEGRTITLNVSTKGLKVIDRDGIESVVAKIRARGEKILEHHHHHH
MKDESERVSNRLPMDESREHLMVKVARMTYQQELNQSEIAAETGLNRWQVSRLLQEARDLGIVRIEIIPRSPRRPDLETALQQTFNLNDSVVVSSDGEQAQSLDTVAQAAGQYIASIKSNGATVGVSWGRTMGAVAHWLPLQWSDGGEVVQINGTVAPISGVTYHNDVAGIFARKAGARLVPLPVPAIVGQRVTREVLERDRIVADVLTKARSAQILIFSCGSLSEESVLVRSGNILRDELATLLSKGAVGDVLGRFIDVNGEIVDAELDARTIGLSLSDLKTSGKAIGIAAGSEKFNVVLGVLRAGLVNVLVTDEATATFALEHA
YLDLWQTQDAKIRAKLAAVFQAEQNLNEAAIAYCLARALPEETAIFFANSMVVRYAEFFWQLNDQQILPYFNRGANGIDGTLSTALGIAENHSPAVLLTGDLALLHDINGFLTLSKFTGSLTIIVINNQGGGIFEMLPIAEEKDIFEDYFATPQTVEFSKVCDLYGIEYQAIQTKADLMQTCAILPPRGVRLLEVKTNRNQAMTWLKDLFQ
